± gives the uncertainty stated by the source.
Test: protein stability index of a GFP-peptide fusion (yeast GPS) (PSI 1-4); higher = more stable; sorted into four equal gates, so the index is relative within each strain
How it was run: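 Tiled 17-residue peptides from yeast proteins were fused downstream of GFP on a plasmid that also expresses Cherry, and the pooled library was carried in yeast. Mid-log cultures grown in leucine-free medium were sorted into four equal gates by GFP/Cherry fluorescence ratio. Plasmids from each gate were PCR-amplified and Illumina-sequenced, and reads were assigned to strains by barcodes. Each peptide's protein stability index is the sum, over gates, of the gate's read frequency multiplied by its gate number.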

KIPDTYTANTSAQSIAS [YAR002W/NUP60]
protein stability index (doa10∆): 1.99 ± 0.049 | protein stability index (pdr5∆): 2.13 ± 0.056 | protein stability index (san1∆): 2.07 ± 0.059 | protein stability index (ubr1∆): 2.56 ± 0.034

VKGRENELLLPSELNQL [RPC82]
protein stability index (san1∆): 3.35 ± 0.13

KLYQTEPSGIYSSWSAQ [PRE6]
protein stability index (doa10∆): 2.63 ± 0.084 | protein stability index (pdr5∆): 2.15 ± 0.11 | protein stability index (san1∆): 2.87 ± 0.11 | protein stability index (ubr1∆): 1.46 ± 0.054

KDLKFPLPHRVQKSTKT [RPL20A]
protein stability index (doa10∆): 2.27 ± 0.053 | protein stability index (pdr5∆): 2.68 ± 0.05 | protein stability index (san1∆): 2.58 ± 0.052 | protein stability index (ubr1∆): 2.69 ± 0.043

KTIEVTAEINCFMHLLV [RPN3]
protein stability index (pdr5∆): 1.77 ± 0.26 | protein stability index (san1∆): 1.78 ± 0.2 | protein stability index (ubr1∆): 1.67 ± 0.19

LQYLPLYAVSTFENTNN [SIR4]
protein stability index (doa10∆): 1.82 ± 0.038 | protein stability index (pdr5∆): 1.71 ± 0.042 | protein stability index (san1∆): 1.41 ± 0.057 | protein stability index (ubr1∆): 2.31 ± 0.046

NLSSTPMETLLSGLSAD [YML031W/NDC1]
protein stability index (doa10∆): 2.42 ± 0.075 | protein stability index (pdr5∆): 2.59 ± 0.071 | protein stability index (san1∆): 2.53 ± 0.055 | protein stability index (ubr1∆): 2.42 ± 0.038

KDKTKNISAEIIRHEKE [SMC4]
protein stability index (doa10∆): 2.58 ± 0.12 | protein stability index (pdr5∆): 3.02 ± 0.12 | protein stability index (san1∆): 2.99 ± 0.086 | protein stability index (ubr1∆): 2.91 ± 0.1

KEALLGQLLKDHLIIEP [ARP9]
protein stability index (doa10∆): 1.79 ± 0.12 | protein stability index (pdr5∆): 1.51 ± 0.077 | protein stability index (san1∆): 1.18 ± 0.16 | protein stability index (ubr1∆): 2.45 ± 0.094

PAGHAGNPTNISSPIVA [YDL088C/ASM4]
protein stability index (doa10∆): 2.52 ± 0.068 | protein stability index (pdr5∆): 2.71 ± 0.065 | protein stability index (san1∆): 2.67 ± 0.064 | protein stability index (ubr1∆): 3.02 ± 0.046

NTPLSLPTRGTLESLEN [COR1]
protein stability index (doa10∆): 3.21 ± 0.12 | protein stability index (pdr5∆): 2.37 ± 0.08 | protein stability index (san1∆): 2.6 ± 0.27 | protein stability index (ubr1∆): 2.41 ± 0.065

CAINSKSRGSDLQYLGE [RRP6]
protein stability index (doa10∆): 3.11 ± 0.06 | protein stability index (pdr5∆): 3.18 ± 0.068 | protein stability index (san1∆): 2.7 ± 0.069 | protein stability index (ubr1∆): 3.2 ± 0.053

TMQPPYIQERLKSLNDI [MED11]
protein stability index (doa10∆): 2.89 ± 0.086 | protein stability index (pdr5∆): 2.86 ± 0.12 | protein stability index (san1∆): 3.13 ± 0.068 | protein stability index (ubr1∆): 2.82 ± 0.056

EERFSELFKGYLADDID [RPL5]
protein stability index (doa10∆): 3.05 ± 0.29 | protein stability index (pdr5∆): 3.27 ± 0.24 | protein stability index (san1∆): 3.3 ± 0.17 | protein stability index (ubr1∆): 3.01 ± 0.28

NTVPQVTNFNSTNEDQN [SRB5]
protein stability index (doa10∆): 2.83 ± 0.09 | protein stability index (pdr5∆): 3.21 ± 0.056 | protein stability index (san1∆): 3.02 ± 0.051 | protein stability index (ubr1∆): 2.9 ± 0.051

KERTKSLEHELKRSTEL [YIL149C/MLP2]
protein stability index (doa10∆): 3.04 ± 0.15 | protein stability index (pdr5∆): 3.36 ± 0.28 | protein stability index (san1∆): 2.47 ± 0.12 | protein stability index (ubr1∆): 3.12 ± 0.094

SDPESERPAIEFETPTF [RPN14]
protein stability index (doa10∆): 3.13 ± 0.054 | protein stability index (pdr5∆): 3.11 ± 0.055 | protein stability index (san1∆): 3.02 ± 0.047 | protein stability index (ubr1∆): 3.15 ± 0.053

VSLVAEATSNTNSEDKL [MED4]
protein stability index (doa10∆): 2.84 ± 0.12 | protein stability index (pdr5∆): 3.03 ± 0.078 | protein stability index (san1∆): 2.84 ± 0.082 | protein stability index (ubr1∆): 2.65 ± 0.1

LAYSKIVNGQTFSYVDS [YMR129W/POM152]
protein stability index (doa10∆): 2.25 ± 0.045 | protein stability index (pdr5∆): 2.64 ± 0.059 | protein stability index (san1∆): 2.53 ± 0.054 | protein stability index (ubr1∆): 1.95 ± 0.042

ASITPYKLVNKNKENNT [RPN4]
protein stability index (doa10∆): 1.08 ± 0.078 | protein stability index (pdr5∆): 2.28 ± 0.092 | protein stability index (san1∆): 2.48 ± 0.12 | protein stability index (ubr1∆): 2.11 ± 0.07

YAKFKRNTMMIQCQIDK [RGR1]
protein stability index (doa10∆): 2.23 ± 0.055 | protein stability index (pdr5∆): 2.24 ± 0.051 | protein stability index (san1∆): 2.1 ± 0.065 | protein stability index (ubr1∆): 2.34 ± 0.033

EGVEYSFLHVDDKLAYI [POP8]
protein stability index (doa10∆): 1.86 ± 0.097 | protein stability index (pdr5∆): 2.1 ± 0.088 | protein stability index (san1∆): 1.86 ± 0.11 | protein stability index (ubr1∆): 2.04 ± 0.074

TGKYGVRYGSSLRRQVK [RPL43A]
protein stability index (doa10∆): 3 ± 0.079 | protein stability index (pdr5∆): 3.23 ± 0.066 | protein stability index (san1∆): 3.42 ± 0.057 | protein stability index (ubr1∆): 3.06 ± 0.046

SDNVYLKLLVKLYTFLA [RPL18A]
protein stability index (doa10∆): 2.12 ± 0.098 | protein stability index (pdr5∆): 1.99 ± 0.099 | protein stability index (san1∆): 1.67 ± 0.084 | protein stability index (ubr1∆): 2.43 ± 0.084

CLFENDLQRLKPLGLDR [ITC1]
protein stability index (doa10∆): 2.92 ± 0.074 | protein stability index (pdr5∆): 3.19 ± 0.11 | protein stability index (san1∆): 3.15 ± 0.065 | protein stability index (ubr1∆): 3.09 ± 0.042

YQSPTIFKIVQSRLMST [MED6]
protein stability index (doa10∆): 1.71 ± 0.1 | protein stability index (pdr5∆): 1.59 ± 0.13 | protein stability index (ubr1∆): 1.96 ± 0.094

VDKALIAEIKKTPLLKQ [RPL6A]
protein stability index (doa10∆): 2.64 ± 0.088 | protein stability index (pdr5∆): 2.12 ± 0.28 | protein stability index (san1∆): 1.92 ± 0.16

PLIMATCGSKGSTLNVS [RPO31]
protein stability index (doa10∆): 2.84 ± 0.12 | protein stability index (pdr5∆): 2.05 ± 0.074 | protein stability index (san1∆): 2.54 ± 0.1 | protein stability index (ubr1∆): 2.23 ± 0.069

DQAMEKKPSPQTIPIQI [YGR119C/NUP57]
protein stability index (pdr5∆): 2.85 ± 0.24

TTFRNEYGKHDFKNEES [MED8]
protein stability index (doa10∆): 3.05 ± 0.1 | protein stability index (pdr5∆): 3.01 ± 0.084 | protein stability index (san1∆): 3.14 ± 0.051 | protein stability index (ubr1∆): 3.28 ± 0.096

TGYDLSNSVFSPDGRNF [PRE10]
protein stability index (doa10∆): 2.79 ± 0.072 | protein stability index (pdr5∆): 2.88 ± 0.089 | protein stability index (san1∆): 2.52 ± 0.13 | protein stability index (ubr1∆): 2.97 ± 0.087

EVTFKNANIFSSVKCFG [FAS1]
protein stability index (doa10∆): 2.92 ± 0.046 | protein stability index (pdr5∆): 2.81 ± 0.058 | protein stability index (san1∆): 2.84 ± 0.063 | protein stability index (ubr1∆): 3.06 ± 0.052

GGESDSALILMYKGFGL [UBP6]
protein stability index (doa10∆): 3.37 ± 0.07 | protein stability index (pdr5∆): 3.41 ± 0.076 | protein stability index (san1∆): 3.15 ± 0.085 | protein stability index (ubr1∆): 3.29 ± 0.055

NINNSSVAEKEEIRSQI [SWI3]
protein stability index (doa10∆): 2.64 ± 0.072 | protein stability index (pdr5∆): 2.19 ± 0.077 | protein stability index (san1∆): 2.2 ± 0.075 | protein stability index (ubr1∆): 2.51 ± 0.059

IRKTPLAQKKAHLAEIQ [RPL3]
protein stability index (doa10∆): 2.19 ± 0.1 | protein stability index (pdr5∆): 1.39 ± 0.066 | protein stability index (san1∆): 2.77 ± 0.12 | protein stability index (ubr1∆): 1.26 ± 0.05

SKKISNTAAALVSLLDE [YAR002W/NUP60]
protein stability index (doa10∆): 2.9 ± 0.095 | protein stability index (pdr5∆): 2.67 ± 0.086 | protein stability index (san1∆): 2.92 ± 0.052 | protein stability index (ubr1∆): 2.78 ± 0.07

LDNLTEDPNSAAFDEVE [DIS3]
protein stability index (doa10∆): 3.19 ± 0.085 | protein stability index (pdr5∆): 3.3 ± 0.072 | protein stability index (san1∆): 3.22 ± 0.041 | protein stability index (ubr1∆): 3.12 ± 0.043

EAKDAIIELENINAKME [YIL149C/MLP2]
protein stability index (doa10∆): 3.06 ± 0.091 | protein stability index (pdr5∆): 3.12 ± 0.099 | protein stability index (san1∆): 3.02 ± 0.08 | protein stability index (ubr1∆): 2.84 ± 0.088

CVVSTDSTNLSDDAAQF [ECM29]
protein stability index (doa10∆): 2.19 ± 0.086 | protein stability index (pdr5∆): 2.6 ± 0.075 | protein stability index (san1∆): 1.69 ± 0.08 | protein stability index (ubr1∆): 3.04 ± 0.078

IKESSKKIKGKSIQDIV [SRP21]
protein stability index (doa10∆): 3.26 ± 0.077 | protein stability index (pdr5∆): 3.31 ± 0.092 | protein stability index (san1∆): 3.33 ± 0.046 | protein stability index (ubr1∆): 3.14 ± 0.12

LSIKNSFIINFISNLPN [NUT1]
protein stability index (doa10∆): 1.92 ± 0.07 | protein stability index (pdr5∆): 1.81 ± 0.05 | protein stability index (san1∆): 1.87 ± 0.1 | protein stability index (ubr1∆): 1.79 ± 0.04

DLAERASELDESKDSIQ [SMC3]
protein stability index (doa10∆): 3.06 ± 0.093 | protein stability index (pdr5∆): 3.1 ± 0.09 | protein stability index (san1∆): 2.83 ± 0.17 | protein stability index (ubr1∆): 3.17 ± 0.06

DVLINELLDQVTLGREG [CDC53]
protein stability index (doa10∆): 3.06 ± 0.078 | protein stability index (pdr5∆): 3.1 ± 0.073 | protein stability index (san1∆): 3.06 ± 0.08 | protein stability index (ubr1∆): 3.17 ± 0.066

IKDTANDNDITVKENES [UBP6]
protein stability index (doa10∆): 2.88 ± 0.1 | protein stability index (pdr5∆): 2.45 ± 0.071 | protein stability index (san1∆): 1.85 ± 0.075 | protein stability index (ubr1∆): 1.41 ± 0.047

MARRPARCYRYQKNKPY [RPL10]
protein stability index (doa10∆): 2.17 ± 0.092 | protein stability index (pdr5∆): 2.13 ± 0.11 | protein stability index (san1∆): 2.32 ± 0.092 | protein stability index (ubr1∆): 2.4 ± 0.1

LKPDLNKITNQGVTCLH [NAS6]
protein stability index (doa10∆): 2.36 ± 0.11 | protein stability index (pdr5∆): 2.05 ± 0.052 | protein stability index (san1∆): 3.13 ± 0.079 | protein stability index (ubr1∆): 2.38 ± 0.059

TLPSVGHTLINNYKDLL [RPP0]
protein stability index (pdr5∆): 3.34 ± 0.21

ESKDSIQDLIVKLKQQK [SMC3]
protein stability index (doa10∆): 3.35 ± 0.1 | protein stability index (pdr5∆): 3.12 ± 0.13 | protein stability index (san1∆): 3.09 ± 0.14 | protein stability index (ubr1∆): 3.35 ± 0.15

FVSYFGKQIKSTIYNWG [YML103C/NUP188]
protein stability index (doa10∆): 1.67 ± 0.11 | protein stability index (pdr5∆): 1.39 ± 0.071 | protein stability index (san1∆): 1.47 ± 0.099 | protein stability index (ubr1∆): 1.6 ± 0.066

VSKKELYAIKKVTLNKE [BRR2]
protein stability index (doa10∆): 1.73 ± 0.072 | protein stability index (pdr5∆): 2.01 ± 0.11 | protein stability index (ubr1∆): 1.6 ± 0.085

LKLLVKLYTFLARRTDA [RPL18A]
protein stability index (doa10∆): 2.26 ± 0.073 | protein stability index (pdr5∆): 1.99 ± 0.056 | protein stability index (san1∆): 1.75 ± 0.065 | protein stability index (ubr1∆): 1.97 ± 0.059

— the supplement of paper PMC9732359
